Here are results for 3 molecules from patent US20260042859A1 (Stanford University, published 2026).

B1: N-terminus FLAG-tagged mutant SMAGP^T7A,T17A expressed on Ramos cells (other, UniProt Q0VAQ4 1-97, looked up)
chain: MTSLLTAPSPREELMTAPILQPTEALSPEDGASTALIAVVITVVFLTLLSVVILIFFYLYKNKGSYVTYEPTEGEPSAIVQMESDLAKGSEKEEYFI
notes: whole, on cells; Double glycosylation-site mutant; also called T7A and T17A double mutations on SMAGP; not shown: N-terminal FLAG tag
B2: N-terminus FLAG-tagged mutant SMAGP^T6A,T7A expressed on Ramos cells (other, UniProt Q0VAQ4 1-97, looked up)
chain: MTSLLAAPSPREELMTTPILQPTEALSPEDGASTALIAVVITVVFLTLLSVVILIFFYLYKNKGSYVTYEPTEGEPSAIVQMESDLAKGSEKEEYFI
notes: whole, on cells; Double glycosylation-site mutant; not shown: N-terminal FLAG tag
B3: N-terminus FLAG-tagged mutant SMAGP^T7A,S9A expressed on Ramos cells (other, UniProt Q0VAQ4 1-97, looked up)
chain: MTSLLTAPAPREELMTTPILQPTEALSPEDGASTALIAVVITVVFLTLLSVVILIFFYLYKNKGSYVTYEPTEGEPSAIVQMESDLAKGSEKEEYFI
notes: as for B2

T1 sequence (Q9UKJ1 20-196 limits assumed): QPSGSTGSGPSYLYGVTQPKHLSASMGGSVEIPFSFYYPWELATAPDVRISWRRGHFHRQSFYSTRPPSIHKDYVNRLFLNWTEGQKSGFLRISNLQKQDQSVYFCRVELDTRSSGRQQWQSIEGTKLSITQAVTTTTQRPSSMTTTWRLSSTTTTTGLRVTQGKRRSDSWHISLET

The assay addresses T1, human recombinant PILRa-Fc protein (human, UniProt Q9UKJ1 20-196, limits assumed).
T1 construct: Recombinant protein; also called human PILRa-Fc; not shown: Fc part
In words: flow cytometry, PILRa-Fc on Ramos cells expressing FLAG-SMAGP mutant, anti-human-IgG-PE secondary. A general note: Flow cytometry measures light scatter and fluorescence of single cells or particles in a stream.
On to B1, for which the binding result is given as “no binding”. For B2, the binding result is on record as “no binding”. With B3, the binding result is “no binding”.
